Target: Recombinant truncated NA protein from the A/Perth/16/2009 H3N2 strain of influenza virus (influenza A virus A/Perth/16/2009 (H3N2))
Assay: SEC

“Recombinant truncated NA protein from the A/Perth/16/2009 H3N2 strain of influenza virus (enzyme)” was tested, and the stoichiometry N was 4.

Source: publication PMC10950269
